Data as given in patent US20260167699A1 (Chugai, published 2026).

B1: GpH7-A5/GpH7-B3 variant T335_14T/GpL16-k0 (antibody, human IgG1, kappa)
heavy 1: not shown
heavy 2: not shown
light: DIVMTQSPLSLPVTPGEPASISCQASESLVHSNRNTYLHWYLQKPGQSPQLLIYKVSNRFSGVPDRFSGSGSGTDFTLKISRVEAEDVGVYYCSQNTHVPPTFGQGTKVEIERTVAAPSVFIFPPSDEQLKSGTASVVCLLNNFYPREAKVQWKVDNALQSGNSQESVTEQDSKDSTYSLSSTLTLSKADYEKHKVYACEVTHQGLSSPVTKSFNRGEC
B2: GpH7-A5/GpH7-B3 variant E269_08L/GpL16-k0 (antibody, human IgG1, kappa)
heavy 1: not shown
heavy 2: not shown
light: B1 light
notes: copies: 1 + 1 + 2
B3: GpH7-A5/GpH7-B3 variant A330_12R/GpL16-k0 (antibody, human IgG1, kappa)
heavy 1: not shown
heavy 2: not shown
light: B1 light
notes: copies: 1 + 1 + 2
B4: GpH7-A5/GpH7-B3 variant D270_08L/GpL16-k0 (antibody, human IgG1, kappa)
heavy 1: not shown
heavy 2: not shown
light: B1 light
notes: copies: 1 + 1 + 2
B5: GpH7-A5/GpH7-B3 variant D270_03V/GpL16-k0 (antibody, human IgG1, kappa)
heavy 1: not shown
heavy 2: not shown
light: B1 light
notes: copies: 1 + 1 + 2
B6: GpH7-A5/GpH7-B3 variant A330_05P/GpL16-k0 (antibody, human IgG1, kappa)
heavy 1: not shown
heavy 2: not shown
light: B1 light
notes: copies: 1 + 1 + 2
B7: GpH7-A5/GpH7-B3 variant E269_13S/GpL16-k0 (antibody, human IgG1, kappa)
heavy 1: not shown
heavy 2: not shown
light: B1 light
notes: copies: 1 + 1 + 2
B8: GpH7-A5/GpH7-B3 variant A327_05P/GpL16-k0 (antibody, human IgG1, kappa)
heavy 1: not shown
heavy 2: not shown
light: B1 light
notes: copies: 1 + 1 + 2
B9: GpH7-A5/GpH7-B3 variant E333_12R/GpL16-k0 (antibody, human IgG1, kappa)
heavy 1: not shown
heavy 2: not shown
light: B1 light
notes: copies: 1 + 1 + 2
B10: GpH7-A5/GpH7-B3 variant E333_01G/GpL16-k0 (antibody, human IgG1, kappa)
heavy 1: not shown
heavy 2: not shown
light: B1 light
notes: copies: 1 + 1 + 2
B11: GpH7-A5/GpH7-B3 variant E269_15Y/GpL16-k0 (antibody, human IgG1, kappa)
heavy 1: not shown
heavy 2: not shown
light: B1 light
notes: copies: 1 + 1 + 2
B12: GpH7-A5/GpH7-B3 variant D270_19Q/GpL16-k0 (antibody, human IgG1, kappa)
heavy 1: not shown
heavy 2: not shown
light: B1 light
notes: copies: 1 + 1 + 2
B13: GpH7-A5/GpH7-B3 variant A327_01G/GpL16-k0 (antibody, human IgG1, kappa)
heavy 1: not shown
heavy 2: not shown
light: B1 light
notes: copies: 1 + 1 + 2
B14: GpH7-A5/GpH7-B3 variant E333_04F/GpL16-k0 (antibody, human IgG1, kappa)
heavy 1: not shown
heavy 2: not shown
light: B1 light
notes: copies: 1 + 1 + 2
B15: GpH7-A5/GpH7-B3 variant A327_13S/GpL16-k0 (antibody, human IgG1, kappa)
heavy 1: not shown
heavy 2: not shown
light: B1 light
notes: copies: 1 + 1 + 2
B16: GpH7-A5/GpH7-B3 variant E333_03V/GpL16-k0 (antibody, human IgG1, kappa)
heavy 1: not shown
heavy 2: not shown
light: B1 light
notes: copies: 1 + 1 + 2
B17: GpH7-A5/GpH7-B3 variant A330_10E/GpL16-k0 (antibody, human IgG1, kappa)
heavy 1: not shown
heavy 2: not shown
light: B1 light
notes: copies: 1 + 1 + 2
B18: GpH7-A5/GpH7-B3 variant E333_08L/GpL16-k0 (antibody, human IgG1, kappa)
heavy 1: not shown
heavy 2: not shown
light: B1 light
notes: copies: 1 + 1 + 2
B19: GpH7-A5/GpH7-B3 variant E333_11K/GpL16-k0 (antibody, human IgG1, kappa)
heavy 1: not shown
heavy 2: not shown
light: B1 light
notes: copies: 1 + 1 + 2
B20: GpH7-A5/GpH7-B3 variant A330_06M/GpL16-k0 (antibody, human IgG1, kappa)
heavy 1: not shown
heavy 2: not shown
light: B1 light
notes: copies: 1 + 1 + 2
B21: GpH7-A5/GpH7-B3 variant D270_10E/GpL16-k0 (antibody, human IgG1, kappa)
heavy 1: not shown
heavy 2: not shown
light: B1 light
notes: copies: 1 + 1 + 2
B22: GpH7-A5/GpH7-B3 variant A330_08L/GpL16-k0 (antibody, human IgG1, kappa)
heavy 1: not shown
heavy 2: not shown
light: B1 light
notes: copies: 1 + 1 + 2
B23: GpH7-A5/GpH7-B3 variant A330_16H/GpL16-k0 (antibody, human IgG1, kappa)
heavy 1: not shown
heavy 2: not shown
light: B1 light
notes: copies: 1 + 1 + 2
B24: GpH7-A5/GpH7-B3 variant E269_03V/GpL16-k0 (antibody, human IgG1, kappa)
heavy 1: not shown
heavy 2: not shown
light: B1 light
notes: copies: 1 + 1 + 2
B25: GpH7-A5/GpH7-B3 variant A330_03V/GpL16-k0 (antibody, human IgG1, kappa)
heavy 1: not shown
heavy 2: not shown
light: B1 light
notes: copies: 1 + 1 + 2
B26: GpH7-A5/GpH7-B3 variant E269_07I/GpL16-k0 (antibody, human IgG1, kappa)
heavy 1: not shown
heavy 2: not shown
light: B1 light
notes: copies: 1 + 1 + 2
B27: GpH7-A5/GpH7-B3 variant A327_18N/GpL16-k0 (antibody, human IgG1, kappa)
heavy 1: not shown
heavy 2: not shown
light: B1 light
notes: copies: 1 + 1 + 2
B28: GpH7-A5/GpH7-B3 variant E333_09D/GpL16-k0 (antibody, human IgG1, kappa)
heavy 1: not shown
heavy 2: not shown
light: B1 light
notes: copies: 1 + 1 + 2
B29: GpH7-A5/GpH7-B3 variant A327_19Q/GpL16-k0 (antibody, human IgG1, kappa)
heavy 1: not shown
heavy 2: not shown
light: B1 light
notes: copies: 1 + 1 + 2
B30: GpH7-A5/GpH7-B3 variant E269_01G/GpL16-k0 (antibody, human IgG1, kappa)
heavy 1: not shown
heavy 2: not shown
light: B1 light
notes: copies: 1 + 1 + 2

Target: T1, FcγRIIIa (human, UniProt P08637 17-208)
T1 construct: extracellular domain; also called 3a; FcγRIIIa extracellular domain
Assay: SPR (Biacore);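 note: antibody variants captured on an SPR sensor chip, with FcγRIIIa passed over as analyte in HBS-EP+ buffer at 25 °C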

T1 sequence (P08637 other isoform, or with tags, fused parts or gaps): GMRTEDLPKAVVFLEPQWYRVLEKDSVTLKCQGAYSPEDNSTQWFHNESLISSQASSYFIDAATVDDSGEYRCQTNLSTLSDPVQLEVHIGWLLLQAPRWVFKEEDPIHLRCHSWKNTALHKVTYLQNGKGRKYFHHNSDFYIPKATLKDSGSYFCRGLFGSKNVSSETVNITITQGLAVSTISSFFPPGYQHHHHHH

Binder | He/Con 3a
B1 | 104 % of GpH7-A5/GpH7-B3/GpL16-k0
B2 | 51.5 % of GpH7-A5/GpH7-B3/GpL16-k0
B3 | 77.3 % of GpH7-A5/GpH7-B3/GpL16-k0
B4 | 65.1 % of GpH7-A5/GpH7-B3/GpL16-k0
B5 | 54.6 % of GpH7-A5/GpH7-B3/GpL16-k0
B6 | 152 % of GpH7-A5/GpH7-B3/GpL16-k0
B7 | 62.1 % of GpH7-A5/GpH7-B3/GpL16-k0
B8 | 61.9 % of GpH7-A5/GpH7-B3/GpL16-k0
B9 | 92.2 % of GpH7-A5/GpH7-B3/GpL16-k0
B10 | 101 % of GpH7-A5/GpH7-B3/GpL16-k0
B11 | 51.5 % of GpH7-A5/GpH7-B3/GpL16-k0
B12 | 74.2 % of GpH7-A5/GpH7-B3/GpL16-k0
B13 | 74.4 % of GpH7-A5/GpH7-B3/GpL16-k0
B14 | 104 % of GpH7-A5/GpH7-B3/GpL16-k0
B15 | 66.7 % of GpH7-A5/GpH7-B3/GpL16-k0
B16 | 106 % of GpH7-A5/GpH7-B3/GpL16-k0
B17 | 82.8 % of GpH7-A5/GpH7-B3/GpL16-k0
B18 | 102 % of GpH7-A5/GpH7-B3/GpL16-k0
B19 | 97.7 % of GpH7-A5/GpH7-B3/GpL16-k0
B20 | 139 % of GpH7-A5/GpH7-B3/GpL16-k0
B21 | 112 % of GpH7-A5/GpH7-B3/GpL16-k0
B22 | 122 % of GpH7-A5/GpH7-B3/GpL16-k0
B23 | 102 % of GpH7-A5/GpH7-B3/GpL16-k0
B24 | 56 % of GpH7-A5/GpH7-B3/GpL16-k0
B25 | 98.8 % of GpH7-A5/GpH7-B3/GpL16-k0
B26 | 55.3 % of GpH7-A5/GpH7-B3/GpL16-k0
B27 | 62.8 % of GpH7-A5/GpH7-B3/GpL16-k0
B28 | 115 % of GpH7-A5/GpH7-B3/GpL16-k0
B29 | 54 % of GpH7-A5/GpH7-B3/GpL16-k0
B30 | 61.6 % of GpH7-A5/GpH7-B3/GpL16-k0
